{"source": "paper PMC10944524", "key": {"[1]": {"biological_target": "DoubleCatcher (N-terminal His6 tag-TEV protease cleavage site-two SpyCatcher003 moieties connected by a (GSG)3 spacer-TEV protease cleavage site-SpyTag003 DA)", "assay": "covalent coupling (isopeptide bond) followed by SDS-PAGE and densitometry; DoubleCatcher 2.5 µM with SpyTag003-mClover3 5 µM, no TEV protease, PBS pH 7.4, 37 °C, time course"}, "[2]": {"biological_target": "Unmasked Catcher (Masked SpyCatcher003 after cleavage by superTEV protease)", "assay": "covalent coupling (isopeptide bond) followed by SDS-PAGE and densitometry; Masked SpyCatcher003, before or after cleavage by superTEV protease, with SpyTag003-MBP; both partners at 5 µM, 37 °C, PBS pH 7.4, time course"}, "[3]": {"biological_target": "Masked SpyCatcher003 (N-terminal His6 tag-SpyCatcher003-TEV protease cleavage site-SpyTag003 D117A)", "assay": "covalent coupling (isopeptide bond) followed by SDS-PAGE and densitometry; Masked SpyCatcher003, before or after cleavage by superTEV protease, with SpyTag003-MBP; both partners at 5 µM, 37 °C, PBS pH 7.4, time course"}, "[4]": {"biological_target": "unmasked DoubleCatcher:SpyTag003-MBP", "assay": "covalent coupling (isopeptide bond) followed by SDS-PAGE and densitometry; step 1: DoubleCatcher with two-fold excess SpyTag003-MBP for 2 h, excess removed on bead-immobilized SpyCatcher003; step 2: superTEV protease at 34 °C, then 2 µM of the cleaved construct with 10 µM SUMO-SpyTag003, time course"}}, "data": [{"substance": "SpyTag003 linked to the green fluorescent protein mClover3", "values": [{"measurement": "half-time of reaction (t1/2)", "setting": "[1]", "value": 0.58, "unit": "min"}, {"measurement": "percent reacted after 1 h", "setting": "[1]", "value": 91, "unit": "%"}]}, {"substance": "SpyTag003 linked to maltose-binding protein (MBP)", "values": [{"measurement": "half-time of reaction (t1/2)", "setting": "[2]", "value": 2.7, "unit": "min"}, {"measurement": "percent reacted", "setting": "[2]", "value": "> 99", "unit": "%"}, {"measurement": "percent reacted after 60 min", "setting": "[3]", "value": 3.7, "unit": "%"}]}, {"substance": "SpyTagged Small Ubiquitin-like Modifier (N-terminal His6 tag-SUMO protein-SpyTag003)", "values": [{"measurement": "half-time of reaction (t1/2)", "setting": "[4]", "value": 3.6, "unit": "min"}, {"measurement": "percent reacted", "setting": "[4]", "value": "> 98", "unit": "%"}]}]}
